Measurements: the nanobody polyreactivity screen of Harvey et al. (2022)

Assay: yeast display, Sf9 membrane polyspecificity reagent, FACS + sequencing; frameworks hold sequencing errors
Summary of the method: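 Nanobodies came from a synthetic yeast display library in Saccharomyces cerevisiae BJ5465, induced with galactose for 36–48 hours and stained for 1 hour at 4 °C with 10% biotinylated, detergent-solubilized Sf9 membrane reagent. Cells were enriched on streptavidin microbeads and then FACS-sorted, with low and high (top ~1%) gates set on anti-HA fluorescence for expression and streptavidin fluorescence for reagent binding. Each polyreactivity label reflects the gate a clone came from. Genes were amplified by colony PCR, sequenced by MiSeq 2 × 250 and filtered by CDR length.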

| Sequence | polyreactivity (PSR sort gate) |
| --- | --- |
| QVQLVESGGALVQAGGSLRLSCAASGSTFYSYAMGWYRQAPGKERELVAVISTGDTTDYADSVKGRFTISRDNAKNTVNLQMNSLKPEDTAVYYCNAPSYWYYPVLGSFLTFDYWGQGTQVTVSS | low polyreactivity |
| QVQLVESGGGLVQAGGSLRLSCAASGFTFYFYAMGWYRQAPGKETELVAGISRGGSTTYADSVTGRFTISRDNAKNTVYLQRNSLKPHDTAVYYCAVGYDIVRYSYSPFYRYDYWGQGTQVTVSS | low polyreactivity |
| QVQLVESGGGLVQAGGSLRLSCAASGSIFPIYAMGWYRQAPGKERELVAAITRSDGSTYYADSVKGRFTISRDNAKNTVYLQMNSLNPEDTAVYYCGDYGYWGQGTQVTVSS | low polyreactivity |
| QVQLVESGGGLVQAGGSLRLSCAASGSIFKLYALGWYRPAPGKERELVAAISLSDGGTYYADSVKGRFTISRDNPKNTVYLQMNSLKPEDTAVYYCNKYYWYPYGRAHDYGYWGQGTQVTVSS | high polyreactivity |
| QVQLVESGGGLVQAGGSLRLSCAASGSIFLDNAMGWYRQAPGKERELVAAISRRGGTTYYADSVKGRFTISRDNAKNTVYLQMNSLKPEDTAVYYCAARYPGGKYYSYTYNYWGQGTQVTVSS | high polyreactivity |
| QVQLVESGGGLVQAGGSLRLSCAASGITFFYYAMGWYRQAPGKERELVAAISTSGGRTYYADSVKGRFTISRDNAKNTVYLQMNSLKPEDTAVYYCAARSRVPPAGPRYDYWGQGTQVTVSS | high polyreactivity |
| QVQLVESGGGLVQAGGSLRLSCAASGITFRRYTMGWYRQAPGKERELVAAISRTGGSTYYADSVKGRFTISRDNAKNTVYLQMNSLKPEDTAVYYCAARPHRYTSRHGYWGQGTQVTVSS | high polyreactivity |
| QVQLVESGGGLVQAGGSLRLSCAASGSTFRYYAMGWYRQAPGKEREFVAAINWSGTSTYYADSVKGRFTISRDNAKNTVYLQMNRLKPEDTAVYYCNARYGLRYVRYGEMDYWGQGTQVTVSA | high polyreactivity |
| QVQLVESGGGLVHAGGSLRLSCAASGYTFGNNAMGWYIQAPGKERELVASIRTNGGTTYYADSVKGRFTISRDNAKNTVYLQMNSLKPEDTAVYYCNAYRGYEYDYWGQGTQVTVSS | low polyreactivity |
| QVQLVESGGGLVQAGGSLRLICAASGSIFTPYVMGWYRQAPGKEREFVAAITQRGGRTYYADSVKGRFTISRDNAKNTVYLQMNSLKPEDTAVYYCAKTSVSRTYHRSAYDYWGQGTQVTVSS | high polyreactivity |
| QVQLVESGGGLVQAGGSLRLSCAASGRTFTGYAMGWYRQAPGKERELVAAISASGGSTYYADSVKGRFTISRDNAKNTVYLQMNSLKPEDTAVYYCAAESWYSVLWEEGYDYWGQGTQVTVSS | low polyreactivity |
| QVQLVESGGGLVQAGGSLRLSCAASGRIFWYYAMGWYRQAPGKERELVATISYVGGNTYYADSVKGRFTISRDNAKNTVYLQMNSLKPDDTAVYYCARVPYAYLPYKPFQQYSYDYWGQGTQVTVSS | high polyreactivity |
| QVQLVESGGGLVQAGGSLRLSCAASGSIFSFYAMGWYRQAPGKERELVAGIDISGGSTYYADSVKGRFTISRDNAKNTVYLQMNSLKPEDTAVYYCAAAKRTDYFYFVAKSGFRYYSWGQGTQVTVSS | high polyreactivity |
| QVQLVESGGGLVQAGGSLRLSCAASGLILYHYAMGWYRQAPGKERELVAAISRSGGRTSYADSVKGRFTISRDNAKNTVYLQMNSLKPEDTAVFYCAAEKVGTRPSRDYDYWGQGTQVTVSS | high polyreactivity |
| QVQLVESGGGLVQAGGSLRLSCAASGFTFAYYTMGWYRQAPGKERELVAAINWSGGSTYYADSVKGRFTISRDNAKNTVYLQMNSLKPEDTAVYYCAAKSYWWATYEYWGQGTQVTVSS | high polyreactivity |
| QVQLVESGGGLVQAGGSLRLSCAASGFTLKRYAMGWYRQAPGKERELVAAISTGGSTYYADSVKGRFTISRDNAKNTVYLQMNSLKPEDTAVYYCAAKRYNRLRSYRYSDREDYWGQGTQVTVSS | high polyreactivity |
| QVQLVESGGGLVQAGGSLRLSCAASGRTIWYNAMGWYRQAPGKERELVAVISSGAITYYADSVKGRFTFSRDNGKNTVYLQMNSLKPEDTAFYYCAARSYLSLIDYWGQGTQVNVSS | high polyreactivity |
| QVQHVESGGGLVQAGGSLRLSCDASGRIFAKYAMGWYRQAHGKERELVAGISWGGGSTYYADSVKGRFTISRDNAKNTVYLQMNSLKPEDTAVYYCAARIPKQRDVRGSGMNYWGQGTQVTVSS | high polyreactivity |
| QVHLVESGGALVQAGGSLRLSCASSGRTFGWNVMGWYRQAPGKERELVAAISGSGGSTYYADSLKGRFTISRDNAKNTVYLQMNSLKPEDTAVYYCAALYGPGREYDYWGQGTQVTVSS | low polyreactivity |
| QVKIVESGGGLVQAGGSLRLSCAATGITFAWYAMGWYRQAPGKERELVAAITWSGDSTYYADSVKGRFTISRDNAKNTVYLQMKSLKPEDTAVYYCAAEGLVFWFGTPYDYWGQGTQVTVSS | high polyreactivity |
| QVQLVESGGGLVQAGGSLRLSCAASGGIFPAYAMGWYRQSPGKERELVASISANGGRTYYADSVKGRFTISRDNAKNSVYLQLNSLKPEDTAVYYCNASYRSGSWRFYYWGQGTQVTVSS | high polyreactivity |
| QVQLVESGGGLVQAGGSLRLSCAASGRIYRENAMGWYRQAPGKEREFVAVISISDASTYYADSVKGRFTISRDNAKNTVYLQMNSLKPVDTAVYYCAADLTDFLYVSSDFWGQGTQVTVSS | low polyreactivity |

| Sequence | polyreactivity (PSR sort gate) |
| --- | --- |
| QVQLVESGGGLVQAGGSLRLSCAASGRIFSTYVMGWYRQAPGKERELVAAITWSGGSTYYADSVKGRFTISRDNAKNTVYLQMNSLKPEDTAVYYCAADEIYRYGYWGQGTLVTVSS | high polyreactivity |
| QVQLVESGGGLVQAGGSLRLSCAASGRIFLGNAMGWYRQAPGKERELVAAIDASGGSTYYADSVKGRFTISRDNAKNTVYLQMNSLKPEDTAVYYCNAEPRYYSGGHGYDYWGQGTQVTVSS | low polyreactivity |
| QVQLVESGGGLVQAGGSLRLSCAASGFIFPGYTMGWYRQAPGKERELVAAISRGSSTYYADSVKRRFTISRDNAKNSVYLQMNSLKPEDTAVYYCAADYSYIYGFDYWGQGTQVTVSS | low polyreactivity |
| QVQLVESGGGLVQAGGSLRLSCAASGSIFGFNAMGWYRQAPGKERELVAAISSGSTYYADSVKGRFTISRDNAKNTVYLQKNSLKPEDTAVYYCAATTGYSWYGYWGQGPQVTVSS | low polyreactivity |
| QVQLVESGGGLVQAGGSLRLSCAASGLFFFYYAMGWYRQAPGKERELDAAIRTNYADSVKGRFTISRDNAKNTVYLQMNSLKPEDTAVYYCAAESSQTPTSAFDYWGQGTQVTVSS | low polyreactivity |
| QVQLVESGGGLVQAGGSLRLSCAASGIIFENYAMGWYRQAPGKERELVAAITIGGSTYYADSVKGRFTISRDNAKNTVYLQMNSLKPEDTAVYYCAARSGAQRGGGYWGQGTQVTVSS | high polyreactivity |
| QVQLVDSGGGLVQAGGSLRLSCAASGSTVQYYAMGWYRQAPGKERELVAAITHSGTRTYYADSVKGRFTISRDNAKNTVYLQINSLKPEDTAVYYCAARGYGKYDYWGQGTQVTVSS | high polyreactivity |
| QVQLVESRGGLVHAGGSLRLSCAASGSIFQSYYMGWYRQAPGKERELVAAISWSGSTTYYADSVKGRFTISRDNAKNTVYLQMNSLKPEDTAVYYCAVDSNPPDWWAVIYGYWGQGTQVTVSS | low polyreactivity |
| QVQLVESGGGLVQAGGSLRLSCAASGSTFAGYAMGWYRQPPGKERELVAAISYSGGTTYYADSVKGRFTISRDNAKNTVYLQMNSLKPEDTAVYYCAARKKFKTPSYDMYYWGQGTQVTVSS | high polyreactivity |
| QVQLVESGGGLVQAGGSLRLICAASGSIFSENTMGWYRQAPGKERELVAAISWSGGSTKYADSVKGRFTISRDNAQITVYLQMNCLKPEDTSVYNCGTDIHDDTGAYDYWGQCTQVTVSS | low polyreactivity |
| QVQLVESGGGIVQAGGSLRLSCAASGSTFRYYARGWSRQAPGKERELVATITCNAAGTYYADSVKGRFTISRDNAKNTVYLQMNSLKPEDTAVYYCAAAPWEWYHYGYYYWGQGTQVTVSS | low polyreactivity |
| QVQLVESGGGLVQAGGSLRLSCGASGSIFPHYAMGWYRQAPGKEREFVSTISGSTGRTYYADSVKGRFTISRDNAKNTVYLQMNSLKPEDTAVYYCATSVGYYLPPIKYDYWGQGTQVTVSS | low polyreactivity |
| QVQLVESGGGLVQAGGSLRLSCAASGITFGPYAMGWYRQAPGKERELVAAISAGGGSTYYADSVKGRFTISRDNAKNTVYLQMNSLKPEDTAVYYCAAYLLHHYGGPEYYYWGQGTQVTVSS | high polyreactivity |
| QVQLVESGGGLVQAGGSLRLSCAASGSIRSYAMGWYRQAPGKERELVAAITRSGGSTYYADSVKGRFTLSRDNAKNSVYLQMNSLKPEDTAVYYCAARYTYSYPYYRYNYWGQGTQVTVSS | high polyreactivity |
| QVQLVESGGGLVQAGGSLRLSCAASGLIFVANAMGWYRQAPGKERELVAAISRSGGITYYADSVKGRFTISRDNAKNTVYLQMNSLKPEDTAVYYCAAELVYFFIYDYWGQGTQVTVSS | low polyreactivity |
| QVQLVESGGGLVQAGGSLRLSCAASGFILKYYAMGWYRQAHGKERELVAAITVSGGSTYYADSVKGRFTISRDNAKNTFYLQMNSLKPEDTAVYYCNADYPRGGAGLLDYWGQGTQVTVSS | low polyreactivity |
| QVQLVESGGGLVQAGGSLRLSCAASGRTFDAYAMGWYRQAPGKERELVAAIRRGSSTNYADSVKGRFTISRDNAKNTVYLQMNSLKPEDTAVYYCAARRQWLGIRTGYNYWGQGTQVTVSS | high polyreactivity |
| QVQLVESGGGLVQAGGSLSLSCAASGFNFGVNTRGWDRQAPGKERELVAAITGSGSSTDYADSVKGRFTISRDNAKNPVYLQMHRLKPEDTAVYYCAASYYSNYPTYLRYYDWGQGTQVTVSS | high polyreactivity |
| QLQLVESGGGLVQAGGSLRLSCAASGSIYWRNAMGWYRQAPGKERELVAAITSGGSTYYADSVKGRFTISRDNAKNTVYLQMNSLKPEDTAVYYCAAGYSYRYGYWGQGTQVTVSS | low polyreactivity |
| QVQLVESGRGLVQAGCSLRLSCAASGSIFEWYAMGWSRQAPGKEMELVADITYNGGSTYYADSVKGRFTISRDNAKNTVYLQMNSLKPEDTAVYYCAADYFVQVPDYYYASEYGYWGQGTQVTVSS | low polyreactivity |
| QVQLVESGGGLVQAGGSLRLSCAASGSTLDYNDMGWYRQAPGKEREFVAAIRSNDGSTYYADSVKGRFTISRDNAKKTVYLQMNSLKPEDTAVYYCNKDVWDGYDWPEFDYLGQGTQVTVSS | low polyreactivity |
